Assay results as given in patent US7847064B2, “Methods and compositions for regulating gene expression in plant cells” (Donald Danforth Plant Science Center, priority 2004, dated 2010).

B1: A5A5GE: (2 × SEQ ID NO: 101 (A5)) + SEQ ID NO: 103 (GE) (protein, listed as Oryza sp.)
chain: EILSLPEDLDLCAAGGGDGPSLSDENDEEEILSLPEDLDLCAAGGGDGPSLSDENDEEKLLSSIEQACDICRLKKLKCSKEKPKCAKCLKNNWECRYSPKTKRSPLTRAHLTEVESRLERLEQLFLLIFPREDLDMILKMDSLQDIKALLTGLFVQDNVNKDAVTDRLASVETDMPLTLRQHRISATSSSEESSNKGQRQLTVSGGSRRISWPECVVPETQCAMKRKEKKAQKEKDKLPVSTTTVDDHMPPIMQCEPPPPEAARIHEVVPRFLSDKLLETNRQKNIPQLTANQQFLIARLIWYQDGYEQPSDEDLKRITQTWQQADDENEESDTPFRQITEMTILTVQLIVEFAKGLPGFAKISQPDQITLLKAFSSEVMMLRVARRYDAASDSVLFANNQAYTRDNYRKAGMAYVIEDLLHFCRCMYSMALDNIHYALLTAVVIFSDRPGLEQPQLVEEIQRYYLNTLRIYILNQLSGSARSSVIYGKILSILSELRTLGMQNSNMCISLKLKNRKLPPFLEEIWDVADMSHTQPPPILESPTNL
modifications: A combination of the Gal4 protein and Ecdysone receptor
B2: RF2b: bZIP transcription factor isolated through interaction with RF2a, SEQ ID NO:5 (protein)
chain: MQEPKHTDPAAMRGAHHRRARSEVAFRLPDDLDLGGGGAGAFDEIGSEDDLFSTFMDIEKISSGPAAAGGSDRDRAAETSSPPRPKHRHSSSVDGSGFFAAARKDAAASLAEVMEAKKAMTPEQLSDLAAIDPKRAKRILANRQSAARSKERKARYITELERKVQTLQTEATTLSAQLTLFQRDTTGLSAENAELKIRLQAMEQQAQLRDALNDALKQELERLKLATGEMTNSNETYSMGLQHVPYNTPFFPLAQHNAARQNGGTQLPPQFQPPRPNVPNHMLSHPNGLQDIMQQDPLGRLQGLDISKGPLVVKSESSSISASESSSTF
modifications: This sequence was artificially derived and/or created by the inventors.
B3: AGE: SEQ ID NO: 6 (A) + SEQ ID NO: 103 (GE) (protein)
chain: MGHRRAHSEILSLPEDLDLCAAGGGDGPSLSDENDEELFSMFLDVEKLNSTCGASSEAEAESSSAAAKLLSSIEQACDICRLKKLKCSKEKPKCAKCLKNNWECRYSPKTKRSPLTRAHLTEVESRLERLEQLFLLIFPREDLDMILKMDSLQDIKALLTGLFVQDNVNKDAVTDRLASVETDMPLTLRQHRISATSSSEESSNKGQRQLTVSGGSRRISWPECVVPETQCAMKRKEKKAQKEKDKLPVSTTTVDDHMPPIMQCEPPPPEAARIHEVVPRFLSDKLLETNRQKNIPQLTANQQFLIARLIWYQDGYEQPSDEDLKRITQTWQQADDENEESDTPFRQITEMTILTVQLIVEFAKGLPGFAKISQPDQITLLKAFSSEVMMLRVARRYDAASDSVLFANNQAYTRDNYRKAGMAYVIEDLLHFCRCMYSMALDNIHYALLTAVVIFSDRPGLEQPQLVEEIQRYYLNTLRIYILNQLSGSARSSVIYGKILSILSELRTLGMQNSNMCISLKLKNRKLPPFLEEIWDVADMSHTQPPPILESPTNL
modifications: This sequence was artificially derived and/or created by the inventors.; A combination of the Gal4 protein and Ecdysone receptor

Assays:
5XG-35S:GUS = experiment: MOF induced GUS activity in Arabidopsis plants with VGE, AGE or A5A5GE; type: in vivo, Arabidopsis thaliana; settings: for activation of GUS expression, T2 generation plants: induced with MOF, plant lines #11, #11, #18; for activation of GUS expression, T1 generation plants: soil drench 1:10,000 dilution of MOF (61.3 μM) for 60 hours
Procedure: In this Example, Arabidopsis thaliana Col-0 plants were transformed with A. tumefaciens bacterium (strain GV3101) containing effector constructs comprising the CsVMV promoter operably linked to a nucleic acid sequence (SEQ ID NO:104) encoding the GE protein, plus (i) a nucleic acid sequence encoding the VP16 acidic activation domain of the herpes simplex virus, (ii) a sequence (SEQ ID NO:9) encoding the full RF2a acidic domain, or (iii) a sequence (2×SEQ ID NO:102) encoding a dimer of the A5 minimal acidic domain of RF2a (“A5A5”). The foregoing VP16 acidic domain-, RF2a acidic domain-, and A5A5 domain-encoding sequences were oriented to express such domains at the N-terminal of the GE protein. FIG. 28 refers to these constructs as VGE, AGE, and A5A5GE, respectively.
The foregoing effector constructs were prepared using standard DNA cloning and PCR procedures, and plasmids containing nucleic acid sequences encoding the VP16 acidic domain, the full length RF2a acidic domain (SEQ ID NO:6), the A5A5 domain (2×SEQ ID NO:101), and the GE domain (SEQ ID NO:103). Those of ordinary skill in the art will appreciate, however, that such effector sequences (and derivatives thereof) may also be constructed synthetically using standard procedures. The reporter construct described in Example 17 above, 5XG-35S:GUS, was used in this Example.
Next, plasmids containing the effector and reporter constructs described above were transferred by electroporation into A. tumefaciens strain GV3101. Agrobacterium isolates that contained the respective plasmids were used to transform A. thaliana Col-0 using a standard floral dip method (Clough and Bent, 1998). Seeds from the T1 generation were collected and germinated in Murashige and Skoog medium (Murashige and Skoog, 1962) containing a selective component (hygromycin B (30 μg/mL).
The seedlings that survived the selection were grown in soil in a growth chamber and allowed to self-fertilize. Next, T2 generation seeds were collected and germinated in Murashige and Skoog medium, which contained hygromycin B (30 μg/mL). The seedlings that survived the selection in a 3:1 segregation pattern were grown in soil in a growth chamber (under 12 hours of light/12 hours of dark per day, at 22° C., 50% humidity).
Analysis of T1 Generation Plants—In this Example, 22 T1 plants were analyzed for methoxyfenozide (MOF) induced gene expression. […] The supernatants were analyzed for GUS enzymatic activity as described in Example 16 above.
Analysis of T2 Generation Plants—A total of 16 different plants from a T2 generation plant line (having a segregation of the reporter/effector constructs of 3:1), wherein each plant contained a VGE, AGE, or A5A5GE effector construct, were induced with MOF and analyzed for GUS activity (as described above). […]

[1] = system: Box II, Box IIm1 and Box IIm2 elements; experiment: Surface Plasmon Resonance binding (BIAcore 2000); settings: 1:1 binding with a mass transfer model
Procedure: To compare the binding affinities of RF2a and RF2b with the Box II element and its mutants, real time Surface Plasmon Resonance (“SPR”) measurements were conducted using a BIAcore 2000 instrument. The binding affinities of RF2a and RF2b to these DNA targets were measured on chips on which biotin labeled-Box II, -Box IIm1 and -Box IIm2 elements were immobilized.
The association and de-association constants were determined using BIAevaluation 3.1 software—using 1:1 binding with a mass transfer model. […] Furthermore, the DNA binding behavior of RF2a and RF2b are quite different from each other. […] The differences in the affinity of RF2a to the Box II element and its mutants, however, are not as dramatic as the differences of RF2b, while the relative order of affinities to the different target elements is the same for both proteins (FIG. 8).

[2] = system: E fragment of the RTBV promoter; experiment: Co-transfection of E::GUS with RF2a and/or RF2b constructs in BY-2 protoplasts; type: cell-based, tobacco
Source text: Nevertheless, the E fragment may be further stimulated by co-transfecting the BY-2 protoplasts with constructs that encode the RF2a and/or RF2b transcription factors. In this Example, the E fragment was activated in tobacco BY-2 protoplasts by co-transfection of E::GUS with CsVMV::RF2b, CaMV 35S::RF2a and CaMV 35S::RF2a/CsVMV::RF2b using methods well-known in the art.

E(Box IIm2) promoter = experiment: BY-2 protoplast transient assay, reporter pE(Box IIm2)::GUS with RF2a/RF2b effectors; type: cell-based, tobacco; settings: co-transfection, BY-2 protoplasts, normalized against GFP
Source text: (§1) To illustrate the biological relevance of the differences in the binding affinities described above, the pE::GUS, pE(Box IIm1)::GUS and pE(Box IIm2)::GUS constructs were used as reporters in BY-2 protoplast transient assays. In these assays, CaMV 35S::RF2a, CsVMV::RF2b and CaMV 35S::RF2a/CsVMV::RF2b were used as effectors. All results were normalized against the GFP internal control. The relative GUS activities of different sets of transfection assays are shown in FIG. 9 for the Box IIm1 element, and FIG. 10 for the Box IIm2 element.

E(Box IIm1) promoter = experiment: BY-2 protoplast transient assay, reporter pE(Box IIm1)::GUS with RF2a/RF2b effectors; type: cell-based, tobacco; settings: co-transfection, BY-2 protoplasts
Source text: as §1

Molecule | activation of GUS expression, T2 generation plants (5XG-35S:GUS) | activation of GUS expression, T1 generation plants (5XG-35S:GUS) | DNA binding behavior (association and dissociation) [1] | activation of the E fragment by over-expression [2] | increase of promoter activity of E(Box IIm2) (E(Box IIm2) promoter) | activity of the E(Box IIm1) promoter compared with the E wild type promoter (E(Box IIm1) promoter) | increase of promoter activity of E(Box IIm1) (E(Box IIm1) promoter; normalized against GFP)
B1 | activated GUS expression (in the T2 generation plants) in the presence of the MOF inducer as strong as VP16 | activated GUS expression in the presence of the MOF inducer as strong as VP16 | – | – | – | – | –
B2 | – | – | binds slowly to the DNA target and releases from the target relatively quickly | activated above a strong background expression | about 5.8 fold | as high as the expression of the E wild type promoter in BY-2 protoplasts | about 7 fold
B3 | activated GUS expression (in the T2 generation plants) in the presence of the MOF inducer as strong as VP16 | activated GUS expression in the presence of the MOF inducer as strong as VP16 | – | – | – | – | –
